One block for each binder: values may come before it.
Experiments:
[1] = target: T1, recombinant human IL-22R (R&D Systems / Biotechne 2770-LR) (human, UniProt Q8N6P7 16-228); test: SPR (Biacore), purified Fab
T1 construct: Bought soluble recombinant protein (said to be 25 kDa); also called hIL22R; IL-22R1
T1 sequence: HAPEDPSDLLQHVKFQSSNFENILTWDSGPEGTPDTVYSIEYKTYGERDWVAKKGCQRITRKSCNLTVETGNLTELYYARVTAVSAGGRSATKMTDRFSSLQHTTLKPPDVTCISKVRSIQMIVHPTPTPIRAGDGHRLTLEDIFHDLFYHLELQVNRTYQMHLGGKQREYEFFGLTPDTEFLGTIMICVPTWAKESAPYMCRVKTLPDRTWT

[2] = target: T2, recombinant mouse IL22R (monomeric, R&D Systems cat 4248-MR) (mouse, UniProt Q80XZ4 16-230); test: SPR (Biacore), purified Fab
T2 construct: extracellular domain; also called murine IL-22R; mIL22R
T2 sequence (looked up): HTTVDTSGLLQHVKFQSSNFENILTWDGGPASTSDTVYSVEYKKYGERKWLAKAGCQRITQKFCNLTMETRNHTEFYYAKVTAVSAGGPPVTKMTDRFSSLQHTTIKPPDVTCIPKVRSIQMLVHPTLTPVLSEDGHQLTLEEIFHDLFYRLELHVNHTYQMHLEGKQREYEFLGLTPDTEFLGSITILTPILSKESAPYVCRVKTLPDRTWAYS

[3] = target: T3, rhIL22R-Fc (rhesus IL22R ECD fused to human Fc) (rhesus monkey, UniProt G7MHN4 16-228); test: off-rate of Fab fragment; method not stated
T3 construct: also called rhesus IL-22R1
T3 sequence: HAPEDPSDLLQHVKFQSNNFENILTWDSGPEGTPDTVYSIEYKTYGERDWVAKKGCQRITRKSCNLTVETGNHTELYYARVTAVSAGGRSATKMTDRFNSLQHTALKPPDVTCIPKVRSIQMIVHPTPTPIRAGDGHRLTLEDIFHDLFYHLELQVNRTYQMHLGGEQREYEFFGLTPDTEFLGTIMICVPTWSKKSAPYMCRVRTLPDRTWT

[4] = target: T1, recombinant human IL-22R (R&D Systems / …); test: off-rate of Fab fragment; method not stated; Fab fragment; human IL-22R1
[5] = target: T4, human IL-22R A209D mutant on BW cells (human, UniProt Q8N6P7 16-574); test: FACS, BW-hIL-22R mutant cells
T4 sequence: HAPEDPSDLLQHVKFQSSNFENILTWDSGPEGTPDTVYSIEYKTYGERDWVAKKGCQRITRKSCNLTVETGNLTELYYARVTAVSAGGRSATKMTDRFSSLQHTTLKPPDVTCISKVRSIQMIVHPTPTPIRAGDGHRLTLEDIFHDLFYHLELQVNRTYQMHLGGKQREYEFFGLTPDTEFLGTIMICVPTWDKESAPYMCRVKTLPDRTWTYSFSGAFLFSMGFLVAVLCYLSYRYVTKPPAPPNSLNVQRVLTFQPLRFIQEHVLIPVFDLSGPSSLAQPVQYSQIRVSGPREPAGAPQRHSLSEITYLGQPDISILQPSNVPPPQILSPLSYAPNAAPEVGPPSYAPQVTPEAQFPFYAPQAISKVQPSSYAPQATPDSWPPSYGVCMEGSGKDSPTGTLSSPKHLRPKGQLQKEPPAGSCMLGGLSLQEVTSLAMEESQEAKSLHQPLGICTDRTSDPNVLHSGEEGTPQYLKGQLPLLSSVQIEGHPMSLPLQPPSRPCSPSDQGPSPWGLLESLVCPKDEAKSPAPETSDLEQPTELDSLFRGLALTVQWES
Protocol: The binding of IL22R antibodies and of the benchmark antibody (280.346.TSY) to BW cells over-expressing various IL22R mutants was tested. The IL22R mutants have mutations of amino acids known to be involved in the IL-22/IL22R interaction. In this setup, the antibodies were biotinylated, added to the cells and binding of the antibody to IL22R was detected with labeled streptavidin by Flow cytometry (FACS).
FACS analysis was also carried out as described in Example 8.2 to study the binding of the germlined antibodies to various IL-22R mutants.

[6] = target: T1, recombinant human IL-22R (R&D Systems / …); test: SPR (Biacore), hIL22R on CM5 chip, mAb injected, 1:1 Langmuir
Protocol: (§1) The affinity of the 230C9 and 223G5 antibodies was measured using SPR ([…]). In brief, 250RU of human IL22R (Biotechne, 2770-LR) was coated onto a CM5 chip using standard methods (EDC coupling of IL22R at a concentration of 2 μg/ml in acetate buffer pH4.5). Then various concentrations of antibody were injected in HBSEP+ buffer (pH 7.4) for 2 minutes. The binding was monitored also during a 10 min washing (HBSEP+).

[7] = target: T1, recombinant human IL-22R (R&D Systems / …); test: SPR (Biacore), hIL22R on CM5 chip, mAb injected; rounded range told of 223G5 and 224C4
Protocol: as §1

[8] = target: T5, human IL-22R expressed on cells (BW-hIL22R, Baf3-hIL22R/IL20Rb, transfected HEK, primary human skin cells) (human, UniProt Q8N6P7 16-574); test: cell-based or functional assay
T5 sequence: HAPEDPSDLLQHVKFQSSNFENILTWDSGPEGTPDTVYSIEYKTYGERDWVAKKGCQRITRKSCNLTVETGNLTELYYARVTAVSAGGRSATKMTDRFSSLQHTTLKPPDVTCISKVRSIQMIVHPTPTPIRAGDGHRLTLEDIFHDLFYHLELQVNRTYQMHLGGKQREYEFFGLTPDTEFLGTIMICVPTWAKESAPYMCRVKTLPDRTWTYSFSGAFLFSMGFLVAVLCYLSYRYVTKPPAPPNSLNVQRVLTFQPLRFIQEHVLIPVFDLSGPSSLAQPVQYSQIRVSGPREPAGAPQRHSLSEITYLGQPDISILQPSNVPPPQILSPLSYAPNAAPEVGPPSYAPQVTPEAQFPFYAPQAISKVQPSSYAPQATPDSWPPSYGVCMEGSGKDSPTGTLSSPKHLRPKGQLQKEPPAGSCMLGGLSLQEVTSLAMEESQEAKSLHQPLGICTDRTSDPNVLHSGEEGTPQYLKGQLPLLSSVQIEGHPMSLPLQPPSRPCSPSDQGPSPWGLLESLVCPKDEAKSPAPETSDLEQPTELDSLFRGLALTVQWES

[9] = target: T5, human IL-22R expressed on cells …; test: cell-based or functional assay; remark: listed apart in the source
[10] = target: T2, recombinant mouse IL22R (monomeric, R&D …); test: summary table of cross-reactivity, mAb, column m = mouse
[11] = target: T5, human IL-22R expressed on cells …; test: cell-based or functional assay; remark: listed apart in the source
[12] = target: T6, cynomolgus monkey IL-22R in ex vivo skin biopsies (cynomolgus monkey, UniProt A0A2K5TKX9 16-573); test: cell-based or functional assay
T6 sequence: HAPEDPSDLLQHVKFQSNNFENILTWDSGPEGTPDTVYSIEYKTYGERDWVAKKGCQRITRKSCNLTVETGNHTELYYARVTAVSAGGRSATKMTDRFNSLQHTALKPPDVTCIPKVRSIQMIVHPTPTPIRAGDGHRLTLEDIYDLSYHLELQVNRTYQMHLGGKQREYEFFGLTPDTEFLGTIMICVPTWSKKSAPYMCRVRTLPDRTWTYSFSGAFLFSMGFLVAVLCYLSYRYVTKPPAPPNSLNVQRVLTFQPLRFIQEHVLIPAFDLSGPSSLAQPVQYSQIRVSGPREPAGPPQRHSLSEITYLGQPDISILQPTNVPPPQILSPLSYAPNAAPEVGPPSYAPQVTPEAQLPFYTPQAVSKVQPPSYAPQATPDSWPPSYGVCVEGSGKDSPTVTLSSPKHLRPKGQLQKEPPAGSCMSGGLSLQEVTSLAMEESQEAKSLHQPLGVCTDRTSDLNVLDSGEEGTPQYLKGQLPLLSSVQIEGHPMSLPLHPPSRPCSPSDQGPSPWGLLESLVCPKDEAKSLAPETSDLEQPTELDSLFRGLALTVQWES

[13] = target: T5, human IL-22R expressed on cells …; test: cell-based or functional assay; remark: listed apart in the source
[14] = target: cynoIL22R_ECD-humanTM_humanICD chimera on transfected cells (cynomolgus monkey; human, UniProt Q8N6P7 229-574); test: cell-based or functional assay
[15] = target: rhesus IL22R ECD - human TM - human ICD chimera on transfected HEK cells (rhesus monkey; human, UniProt Q8N6P7 229-574); test: cell-based or functional assay
[16] = target: T5, human IL-22R expressed on cells …; test: cell-based or functional assay; remark: listed apart in the source
[17] = target: T1, recombinant human IL-22R (R&D Systems / …); test: SPR (Biacore), mAb on chip, monomeric hIL22R injected, 1:1 Langmuir
Protocol: Because of the potential avidity effect observed when a bivalent molecule is used as a ligand during affinity measurement, a reverse experimental setup was tested. In this set-up, the antibodies were coated to 250RU using standard methods. Monomeric human IL22R was added at different concentrations, and the affinities calculated using the BIAevaluation software using a Langmuir 1:1 fitting are shown in Table 21 below.

B1: 166G8 Fab (Fab, V domains shown)
VH: QVQLVESGGGLVQPGDSLRLSCAASGFTFGSYFMSWVRQAPGKGPEWVSGIHISGGITYYLDSVKGRFTISRDNAKNTLYLQMNNLKPEDTAVYYCVTPPGPFKAHYNGMKYWGKGTLVTVSS
VL: NFMLTQPPSVSGTLGKTVTISCTGTSRDIGDYNYVSWYQQLPGLAPKLLIYKVNTRSSGTPDRFSGSKSGNTASLTISGLQSEDEADYYCASYRLYADYVFGGGTHLTVL
notes: VH family 5; purified llama Fab
koff [1]: 0.00088 s⁻¹
binding result [2]: no binding
koff [3]: 0.0222 s⁻¹
koff [4]: 0.00122 s⁻¹

B3: 218A7 mAb (antibody, V domains shown)
VH: QVQLVESGGGLVQPGGSLRLSCAASGFTFSSYDMSWVRQAPGKGLEWVSSIYNDGSNTAYSDSVKGRFTISRDNAKNTLYLQMNSLKSEDTAVYYCAKVGFSGTYYSESWGQGTQVTVSS
VL: LPVLTQPSAVSVSLGQTARITCQGGYYAHWYQQKPGQAPVLVIYGQNNRPSGIPERFSGSGAGNTATLTISGAQAEDEAEYYCQSGSSSANAVFGGGTKLTVL
notes: VH family 4; light chain shuffled variant of 157A2, not germlined
IC50 blocking IL-22 (pM), BW hIL22R proliferation [8]: 360 pM
IC50 blocking IL-22 (nM), BWhIL22R cell line [9]: 0.28 nM
Relative potency to 280.346.TSY (IL-22, BWhIL22R cell line) [9]: 2.5 fold
binding result [10]: no binding

Continued, values first:

binding result [5]: no binding
Kd [6]: 0.016 nM
koff [6]: 0.0001 s⁻¹
kon [6]: 6.6e+06 M⁻¹ s⁻¹
Kd [7]: 0.01 to 0.02 nM
B2: 223G5 mAb (antibody, human IgG1, lambda, N297Q, V domains shown)
VH: QVQLVESGGGLVQPGGSLRLSCAASGFTFSSYFMSWVRQAPGKGPEWVSGIHISGGITYYTDSVKGRFTISRDNAKNTLYLQMNSLRAEDTAVYYCVTPPGPFKAHYNGAKYWGKGTLVTVSS
VL: QSALTQPPSVSGSPGQSVTISCTGTSSDIGSYNYVSWYQQLPGKAPKLLIYEVNKRSSGVPDRFSGSKSGNTASLTISGLQAEDEADYYCASYRLYADYVFGGGTQLTVLG
notes: Germlined variant of 166G8; also called 223G5-N297Q

EC50, inhibition of CCL2 levels in primary human keratinocytes stimulated with IL-4, IL-13, IL-22 and IFN-gamma [11]: 0.1 nM
EC50, reduction of rhIL-22 induced DEFB4 mRNA in human ex vivo skin explants [11]: 4 nM
EC50, block of rhIL-22 down-regulation of FLG2 and LOR mRNA in cynomolgus skin biopsies [12]: 11 nM
IC50 blocking IL-22 (nM), BWhIL22R cell line [9]: 0.56 nM
Relative potency to 280.346.TSY (IL-22, BWhIL22R cell line) [9]: 1.2 fold
IC50 blocking IL-20 (nM), Baf3hIL22R/IL20Rb cell line; batch #1 [13]: 0.781 nM
IC50 blocking IL-20 (nM), Baf3hIL22R/IL20Rb cell line; batch #2 [13]: 0.567 nM
Relative potency to 280.346.TSY (IL-20); batch #1 [13]: 1.9 fold
Relative potency to 280.346.TSY (IL-20); batch #2 [13]: 2.6 fold
EC50 (nM), STAT3-reporter in HEK cells after human IL22, Cyno ECD [14]: 0.57 nM
EC50 (nM), STAT3-reporter in HEK cells after human IL22, Rhesus ECD [15]: 0.48 nM
EC50 (nM), STAT3-reporter in HEK cells after human IL22, Human ECD [16]: 0.28 nM
Kd [6]: 0.13 nM
koff [6]: 8.9e-05 s⁻¹
kon [6]: 680000 M⁻¹ s⁻¹
Kd [17]: 0.22 nM
koff [17]: 0.00022 s⁻¹
kon [17]: 920000 M⁻¹ s⁻¹
B4: 230C9 mAb (antibody, human IgG1, lambda, N297Q, V domains shown)
VH: QVQLVESGGGLVQPGGSLRLSCAASGFTFSSYDMNWVRQAPGKGLEWVSSIYNDASNTAYSDSVKGRFTISRDNSKNTLYLQMNSLRAEDTAVYYCAKVGFSGTYYSESWGQGTLVTVSS
VL: SYELTQPSSVSVALGQTARITCQGGYYAHWYQQKPGQAPVLVIYGQNNRPSGIPERFSGSGAGNTATLTISRAQAEDEADYYCQSGSSSSNAVFGGGTKLTVLG
notes: Germlined variant of 218A7; also called 230C9-N297Q; 230C9 N297Q

— US20230088269A1 (ARGENX BVBA, published 2023)
